Square brackets hold non-standard residues; d marks the D form. Ends that are not written are not given here. Ala(7-OPO3H2-coumarin-4-yl) = N[C@@H](Cc1cc(=O)oc2cc(OP(=O)(O)O)ccc12)C(=O)O
Legend:
[1] = system: Jurkat TAg (JTAg) cells; assay: Cellular uptake of cell-permeable CAP peptides, flow cytometry; type: cell-based; details: JTAg T cells treated with lipid-R7 peptides
Method: FIG. 6. […] Cells were incubated for 1 hour with RPMI with 0.5% FBS with DMSO alone or containing 12.5 μM of Ant-CAP or R8-CAP. The fluorescence (Y axis) versus forward scatter (X axis) of 10,000 cells gated as live T cells on the forward versus side scatter plot is shown. The percentage (%) of positive (showing fluorescence over the control level) cells is shown in each panel.
The inventors have shown that pCAP peptides are dephosphorylated by PTPs, but are not recognized by serine/threonine phosphatases, which makes them particularly suitable as probes to detect intracellular PTP activity (FIG. 1). […] The amount of enzyme used was normalized to be the same activity on DiFMUP. […] To determine if these peptides are suitable substrates for cell-based screening of PTP inhibitors, the inventors further assessed dephosphorylation in microinjected cells. Using fluorescence microscopy, intracellular dephosphorylation of the microinjected peptides was observed as recognized by an increase in fluorescence over time and was inhibited by a known PTP inhibitor (FIG. 2). […] Human Jurkat TAg (JTAg) cells with CAP-ANT and CAP-R8 peptides were incubated and analyzed by flow cytometry. […]
Cells are added to wells of a plate at a concentration of up to 10 million/mL. […] Cells can be analyzed with any flow cytometry system equipped with appropriate excitation and emission filters.

[2] = system: T1, 9LckpCAP394 peptide (EDNE-pCAP-TARE)
T1 sequence: EDNEXTARE

[3] = biological target: T2, T cell PTP (TCPTP) (Homo sapiens, UniProt P17706); details: cited from earlier work
T2 sequence (P17706 1-415): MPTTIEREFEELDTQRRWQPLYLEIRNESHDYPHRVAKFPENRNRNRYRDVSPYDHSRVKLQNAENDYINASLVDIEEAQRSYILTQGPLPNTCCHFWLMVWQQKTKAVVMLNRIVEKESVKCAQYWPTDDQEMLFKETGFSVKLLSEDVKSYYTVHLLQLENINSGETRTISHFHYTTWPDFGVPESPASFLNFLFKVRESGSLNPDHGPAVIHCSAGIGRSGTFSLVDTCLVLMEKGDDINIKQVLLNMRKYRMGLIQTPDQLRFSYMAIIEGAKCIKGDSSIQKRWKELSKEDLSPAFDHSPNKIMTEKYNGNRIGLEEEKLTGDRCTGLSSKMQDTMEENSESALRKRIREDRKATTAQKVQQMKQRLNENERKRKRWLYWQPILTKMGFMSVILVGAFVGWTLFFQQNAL

[4] = biological target: YOP (Yersinia enterocolitica, UniProt P15273); details: excitation at 340 nm and emission at 460 nm; cited from earlier work
YOP, sequence (P15273 whole entry): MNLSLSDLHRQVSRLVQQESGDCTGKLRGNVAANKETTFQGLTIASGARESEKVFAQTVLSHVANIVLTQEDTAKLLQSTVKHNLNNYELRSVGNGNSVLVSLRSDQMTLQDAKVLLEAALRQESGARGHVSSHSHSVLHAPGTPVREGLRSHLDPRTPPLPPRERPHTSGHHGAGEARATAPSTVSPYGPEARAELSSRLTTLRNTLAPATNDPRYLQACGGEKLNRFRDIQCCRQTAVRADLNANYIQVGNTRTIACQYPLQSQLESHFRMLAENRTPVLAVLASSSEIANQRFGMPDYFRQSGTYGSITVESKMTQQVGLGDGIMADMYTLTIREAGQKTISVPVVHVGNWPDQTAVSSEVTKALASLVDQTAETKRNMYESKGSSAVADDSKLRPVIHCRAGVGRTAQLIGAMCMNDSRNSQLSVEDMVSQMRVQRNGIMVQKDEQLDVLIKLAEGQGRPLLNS

[5] = biological target: T3, PTPN22 (Homo sapiens, UniProt Q9Y2R2); assay: Dephosphorylation of pCAP peptide by PTPN22; type: biochemical
T3 sequence (Q9Y2R2 1-807): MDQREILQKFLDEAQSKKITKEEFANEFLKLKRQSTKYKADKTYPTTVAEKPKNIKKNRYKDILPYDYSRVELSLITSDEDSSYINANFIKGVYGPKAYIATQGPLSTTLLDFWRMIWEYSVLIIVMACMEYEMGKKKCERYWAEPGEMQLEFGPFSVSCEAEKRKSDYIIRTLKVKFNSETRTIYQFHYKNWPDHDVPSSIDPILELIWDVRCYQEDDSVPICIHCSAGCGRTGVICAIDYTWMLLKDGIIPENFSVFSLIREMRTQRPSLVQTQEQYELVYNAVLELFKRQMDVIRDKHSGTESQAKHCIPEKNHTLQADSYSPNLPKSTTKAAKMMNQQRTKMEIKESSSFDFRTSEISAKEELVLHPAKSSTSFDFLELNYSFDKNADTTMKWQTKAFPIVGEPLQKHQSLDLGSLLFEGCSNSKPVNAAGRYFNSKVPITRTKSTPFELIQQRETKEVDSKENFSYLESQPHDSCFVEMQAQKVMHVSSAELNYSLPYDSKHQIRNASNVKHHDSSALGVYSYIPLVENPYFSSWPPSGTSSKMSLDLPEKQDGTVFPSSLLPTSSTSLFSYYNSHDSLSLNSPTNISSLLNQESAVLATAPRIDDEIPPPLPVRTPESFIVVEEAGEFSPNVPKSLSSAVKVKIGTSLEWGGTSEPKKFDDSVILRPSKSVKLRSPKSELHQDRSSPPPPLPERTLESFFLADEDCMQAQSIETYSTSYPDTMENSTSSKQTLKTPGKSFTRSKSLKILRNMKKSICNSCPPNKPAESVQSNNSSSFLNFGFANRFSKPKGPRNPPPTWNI
Method: (§1) (A) Structure of CAP, pCAP, and Et2-pCAP, a non-hydrolyzable form of pCAP. (B) Kinetic parameters of dephosphorylation of 9LckpCAP394 peptide by PTPN22. (C) Time-course of dephosphorylation of 0.2 mM 9LckpCAP394 peptide by PP1 (filled triangles), PP2A (open squares), or PP2B (filled squares). Linear regression is also shown. The activity of the enzymes was normalized using difluoromethylumbelliferone phosphate (DiFMUP) as substrate and equal units were used for all the assays on pCAP peptide. Open diamonds and dashed line show representative activity of all enzymes on 0.2 mM DiFMUP.
(§2) The amount of enzyme used was normalized to be the same activity on DiFMUP. […] To determine if these peptides are suitable substrates for cell-based screening of PTP inhibitors, the inventors further assessed dephosphorylation in microinjected cells. […] In principle, any FACS system equipped with the appropriate excitation and emission filters could be used. […] Human Jurkat TAg (JTAg) cells with CAP-ANT and CAP-R8 peptides were incubated and analyzed by flow cytometry.

[6] = system: serine-threonine phosphatases (PP1, PP2A, PP2B); assay: Dephosphorylation of pCAP peptide by serine-threonine phosphatases, plate reader time-course; type: biochemical; details: 0.2 mM peptide; optimal buffer for each enzyme; enzyme amount normalized to same activity on DiFMUP
Method: as §1, §2

[7] = system: intracellular PTPs in JTAg cells; assay: Intracellular dephosphorylation of nucleofected pCAP peptide, flow cytometry; type: cell-based, human; details: preincubated with 10 mM vanadate; 100 μM 9LckpCAP394 peptide; 1′ after nucleofection
Method: FIG. 3. Dephosphorylation of pCAP peptide by intracellular PTPs after nucleofection. (A) Time-course of intracellular dephosphorylation of nucleofected 9Lck394 CAP-based peptides. JTAg human T cells were nucleofected in the presence of 100 μM pCAP peptide (blue lines), 100 μM CAP peptide (red lines) or 100 μM of a non-hydrolyzable Et2pCAP peptide (green lines). Cell fluorescence was measured using a BD LSR-II with a DAPI filter at 30″ (dotted lines) and 1′ (continuous lines). […] (B) Fluorescence of non-nucleofected JTAg cells incubated in the presence of the CAP-based peptides used for the experiment in panel (A). Graphs show fluorescence of non-nucleofected cells incubated with 100 μM pCAP peptide (dashed blue line), 100 μM CAP peptide (dashed red line) or 100 μM of a non-hydrolyzable Et2pCAP peptide (dashed green line). Data from panel (A) and (B) are representative of the same experiment. […] JTAg cells were nucleofected in the presence of 100 μM 9LckpCAP394 peptide and cell fluorescence was measured at 1′ (pink line), 2.5′ (purple line), 5′ (light blue line), and 10′ (dark blue line). […]
FIG. 4. […] Dashed red and blue lines show fluorescence of non-nucleofected cells incubated with pCAP peptide (blue dashed line) or CAP peptide (red dashed line), and vanadate.
FIG. 5. […] The fluorescence of cells was assessed at 1′ (black lines) or 15′ (yellow lines) after fixation. […]

[8] = biological target: T4, 9LckpCAP394 peptide (EDNE-pCAP-TARE)
T4 chain: EDNEXTARE

## C14-betaAla-R7-CAP
[1]
  efficacy of internalization compared to non-lipidic tags: substantially increase efficacy of internalization

## PP2B
[2]
  hydrolysis (dephosphorylation) of 0.2 mM pCAP peptide over time, fluorescence excitation 340 nm / emission 460 nm: The serine-threonine phosphatases were ineffective at hydrolysis of this peptide

## PP2A
[2]
  hydrolysis (dephosphorylation) of 0.2 mM pCAP peptide over time, fluorescence excitation 340 nm / emission 460 nm: The serine-threonine phosphatases were ineffective at hydrolysis of this peptide

## DADE-pCAP-GPAA-NH2 (DADEXGPAX; pCAP residue, C-terminal amide; artificial YOP substrate) [peptide 1]
[3]
  turnover by human PTPs including TCPTP: efficiently turned over
[4]
  fluorescence change on dephosphorylation by YOP: linear increase in fluorescence

## EDNE-pCAP-TARE (EDNE[Ala(7-OPO3H2-coumarin-4-yl)]TARE) [9Lck394p CAP, pCAP peptide, artificial PTPN22 substrate]
[5]
  hydrolysis by PTPN22: efficiently hydrolyzed
[6]
  hydrolysis by serine-threonine phosphatases: ineffective at hydrolysis

## C16-betaAla-R7-CAP
[1]
  efficacy of internalization compared to non-lipidic tags: substantially increase efficacy of internalization

## [O]=[V]([O-])([O-])[O-] [Vanadate, vanadate]
[7]
  inhibition of dephosphorylation of pCAP peptide in nucleofected JTAg cells: inhibits the dephosphorylation

## PP1
[2]
  hydrolysis (dephosphorylation) of 0.2 mM pCAP peptide over time, fluorescence excitation 340 nm / emission 460 nm: The serine-threonine phosphatases were ineffective at hydrolysis of this peptide

B1: PTPN22 (protein)
chain: MDQREILQKFLDEAQSKKITKEEFANEFLKLKRQSTKYKADKTYPTTVAEKPKNIKKNRYKDILPYDYSRVELSLITSDEDSSYINANFIKGVYGPKAYIATQGPLSTTLLDFWRMIWEYSVLIIVMACMEYEMGKKKCERYWAEPGEMQLEFGPFSVSCEAEKRKSDYIIRTLKVKFNSETRTIYQFHYKNWPDHDVPSSIDPILELIWDVRCYQEDDSVPICIHCSAGCGRTGVICAIDYTWMLLKDGIIPENFSVFSLIREMRTQRPSLVQTQEQYELVYNAVLELFKRQM
[8]
  hydrolysis (dephosphorylation) of pCAP peptide, fluorescence excitation 340 nm / emission 460 nm: efficiently hydrolyzed by PTPN22
